Patent US20250179196A1 (Janssen / Centocor, published 2025)

T1: rat IL-23R extracellular domain (ECD) protein (rat)
T1 construct: also called rat IL-23R ECD; F1LX96 amino acids 24-354
T1 chain: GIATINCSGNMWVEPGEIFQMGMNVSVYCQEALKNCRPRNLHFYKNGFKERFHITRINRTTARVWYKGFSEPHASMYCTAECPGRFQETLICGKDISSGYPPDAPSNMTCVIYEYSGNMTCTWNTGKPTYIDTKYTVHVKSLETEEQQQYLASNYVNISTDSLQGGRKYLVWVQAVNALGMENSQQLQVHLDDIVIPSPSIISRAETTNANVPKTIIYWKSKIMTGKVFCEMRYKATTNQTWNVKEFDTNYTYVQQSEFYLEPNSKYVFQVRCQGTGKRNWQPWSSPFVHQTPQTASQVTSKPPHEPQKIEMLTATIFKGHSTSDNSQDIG

T2: Recombinant human IL-23 receptor (IL-23R) extracellular domain (ECD) protein (human, UniProt Q5VWK5 24-355)
T2 construct: also called human IL-23R ECD; hu IL-23R ECD
T2 sequence: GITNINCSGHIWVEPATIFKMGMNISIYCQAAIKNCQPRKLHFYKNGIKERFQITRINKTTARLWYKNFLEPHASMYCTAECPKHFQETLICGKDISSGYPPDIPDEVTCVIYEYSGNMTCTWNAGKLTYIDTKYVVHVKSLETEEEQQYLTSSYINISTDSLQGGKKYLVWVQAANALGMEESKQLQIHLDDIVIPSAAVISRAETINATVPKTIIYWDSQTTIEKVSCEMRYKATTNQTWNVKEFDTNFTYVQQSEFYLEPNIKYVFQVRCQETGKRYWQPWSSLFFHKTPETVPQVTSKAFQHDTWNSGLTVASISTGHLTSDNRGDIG


Legend:
[1] = biological target: T1, rat IL-23R extracellular domain (ECD) …; assay: SPR Biacore 8K, supernatant
Experimental: Affinity by SPR using Biacore 8K. Affinity measurements using Surface Plasmon Resonance (SPR) were performed using a Biacore 8K system (Cytiva). […] Approximately 9000-10000 RU (response units) of mAbs were immobilized. The kinetic experiments were performed at 25° C. in running buffer 1× of (HBS-P+ Buffer 10× (Cytiva #BR100671)+100 μg/ml BSA). To perform kinetic experiments, approximately 150 RU of mAbs were captured followed by injections of human IL-23R or rat IL-23R at concentrations ranging from 0.8 nM to 500 nM (in a 5-fold serial dilution). The association phase was monitored for 3 minutes at 50 μL/min, then followed by 30 minutes of buffer flow (dissociation phase). […] The collected data were processed using Biacore insight Evaluation software (Version 3.0.12.15655). The kinetic analysis of the data was performed using a Langmuir 1:1 binding model. The result for each mAb was reported in the format of Ka (On-rate), Kd (Off-rate) and KD (equilibrium dissociation constant).

[2] = biological target: T2, Recombinant human IL-23 receptor …; assay: SPR Biacore 8K, supernatant, analysis 1
Procedure, shortened: (§1)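 Kinetics fitted to a 1:1 Langmuir model gave on-rate, off-rate and KD. Human or rat IL-23R ECD flowed over captured mAbs (~150 RU) at 0.8–500 nM, 5-fold dilutions: 3 min binding at 50 μL/min, then 30 min buffer, 25 °C, HBS-P+ plus 100 μg/ml BSA.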

[3] = biological target: T2, Recombinant human IL-23 receptor …; assay: SPR Biacore 8K, supernatant, analysis 2
Procedure, shortened: as §1

| Kd [1] | koff [1] | kon [1] | Kd [2] | koff [2] | kon [2] | Kd [3] | koff [3] | kon [3] | binding result [1] | Binder |
| --- | --- | --- | --- | --- | --- | --- | --- | --- | --- | --- |
| 715 nM | 0.0642 s⁻¹ | 89700 M⁻¹ s⁻¹ | 68.4 nM | 0.0115 s⁻¹ | 168000 M⁻¹ s⁻¹ | 25.5 nM | 0.00898 s⁻¹ | 352000 M⁻¹ s⁻¹ |  | I23RB56 (antibody, mouse IgG2a, kappa, V domains shown, mouse immunization; mouse IgG2a/kappa) VH: EVKLVESGGGLVKPGGSLKLSCAASGFTFSSYAMSWVRQTPEKRLEWVAAINSNDGSTYYPDTVKDRFTISRDNAKNTLYLQMSSLRSEDTALYYCARHFLYFSNFYYFDYWGQGTTLTVSS VL: DIVMTQSPKFLLVSAGDRVTITCKASQSVSNDVAWYQQKPGQSPKLLIYYASNRYTGVPDRFTGSGYGTVFTFTISTVQAEDLAVYFCQQDYSSPFTFGSGTKLEIKR |
| 306 nM | 0.00909 s⁻¹ | 29800 M⁻¹ s⁻¹ | 46.2 nM | 0.0101 s⁻¹ | 220000 M⁻¹ s⁻¹ | 35.9 nM | 0.00763 s⁻¹ | 212000 M⁻¹ s⁻¹ |  | I23RB30 (antibody, mouse IgG2a, kappa, V domains shown, mouse immunization; mouse IgG2a/kappa) VH: not shown VL: DIVLTQSQRFMSTSVGDRVSITCKASQNIRTAVAWYQQKPGQSPKALIYLPSNRHTGVPDRFTGSGSGTDFTLTISNVQSEDLADYFCLQHWNYPLTFGAGTKLELKR |
|  |  |  | 0.279 nM | 0.000118 s⁻¹ | 424000 M⁻¹ s⁻¹ | 0.422 nM | 0.000155 s⁻¹ | 368000 M⁻¹ s⁻¹ | no binding (tested: 500 nM) | I23RB168 (antibody, mouse IgG2a, kappa, V domains shown, mouse immunization; mouse IgG2a/kappa) VH: QIQLVQSGPELVKPGASVKMSCKTSGYTFTDYYINWVKQRPGQGLEWIGWIYPAINNTNYNEKFKGKATLTVDTSSRTAYMQLNSLTSEDSAVYFCAISRKPYFDYWGQGTTLTVSS VL: DIQMTQSSSSFSVSLGDRVTITCKASEDLYNRLAWYQQKPGNAPRLLISGATSLGTGVLSRFSGSGSGKDYTLSITSLQTEDVATYYCQQYWSIPWTFGAGTKLELKR |
|  |  |  | 49.8 nM | 0.00194 s⁻¹ | 38900 M⁻¹ s⁻¹ | 43.7 nM | 0.00394 s⁻¹ | 90200 M⁻¹ s⁻¹ | no binding (tested: 500 nM) | I23RB182 (antibody, mouse IgG2a, kappa, V domains shown, mouse immunization; mouse IgG2a/kappa) VH: EVQLQQSGPGLVKPSQSLSLTCSVTGYSITSGYFWNWLRQFPGSKLEWMGFIDNDGSNDYNPSLKNRISITRDTSKNQFFLRLNSVTTEDTATYYCARGRLGFFDSWGPGTTLTVSS VL: DIVMTQSPAIMSASLGEKVTMSCRASSSVNYMYWYQQKSDASPKLWIYYTSNLAPGVPARFSGSGSGNSYSLTISSMEGEDAATYYCQQFTNSPWTFGAGTKLELKR |
|  |  |  | 13.7 nM | 0.00118 s⁻¹ | 86400 M⁻¹ s⁻¹ | 2.18 nM | 0.00129 s⁻¹ | 592000 M⁻¹ s⁻¹ | no binding (tested: 500 nM) | I23RB36 (antibody, mouse IgG2a, kappa, V domains shown, mouse immunization; mouse IgG2a/kappa) VH: QIQLVQSGAELVKPGASVKLSCTTSGFNIKDTYIHWMKQRPEQGLEWIGRIDPANGNTIYASKFQGKATLTTDTSSNTAYMLLSSLTSGDTAVYYCTRGTSWFAYWGQGTTVTVSS VL: DIVMTQSPKSMSMSVGERVTLSCKASENVGTSVSWFQQKPEQSPKLLIYGASNRYTGVPDRFTGSGSATDFTLTISSVQAEDLADYHCGQSYSYPRTFGGGTKLEIKR |
|  |  |  | 32 nM | 0.00739 s⁻¹ | 231000 M⁻¹ s⁻¹ | 14.9 nM | 0.00716 s⁻¹ | 482000 M⁻¹ s⁻¹ | no binding (tested: 500 nM) | I23RB39 (antibody, mouse IgG2a, kappa, V domains shown, mouse immunization; mouse IgG2a/kappa) VH: EVQLQQSGPELVKPGAPVKISCKASGYTFTNYYIHWVKQRPGQGLEWIGYIYPGNGGTAYNQKFKDKATLTADNPSSTAYMQLSSLTSEDSAVYFCARSRGGSRNYFDYWGQGTTLTVSS VL: DIQMTQSHKFMSTSVGDRVSITCKASQDVSTAVAWYQQKPGQSPKLLIYSAFYRYTGVPDRFTGSGSGTDFTFTISSVQAEDLAVYYCQQHYSSPRTFGAGTKLELKR |
|  |  |  | 43.1 nM | 0.0193 s⁻¹ | 447000 M⁻¹ s⁻¹ | 44.1 nM | 0.00942 s⁻¹ | 214000 M⁻¹ s⁻¹ | no binding (tested: 500 nM) | I23RB166 (antibody, mouse IgG2a, kappa, V domains shown, mouse immunization; mouse IgG2a/kappa) VH: DVQLQESGPGLVKPSQTVSLTCTVTGYSITNGNHWWNWIRQVSGSKLEWIGYIRSSGSTDSNPSLKSRISITRDTSKNQLFLQLNSVTAEDIATYYCARERLRLRWSYFDYWGQGTTLTVSS VL: DIVMTQSHKFMSTSVGARVSITCKASQDVSTAVAWYQQKPGQSPKLLIYSASYRYTGVPDRFTGSGSGTDFTFTISSVQAEDLAVYYCQQHYSTPRTFGGGTKLEIKR |
|  |  |  | 16.9 nM | 0.00955 s⁻¹ | 567000 M⁻¹ s⁻¹ | 13.8 nM | 0.0142 s⁻¹ | 1.02e+06 M⁻¹ s⁻¹ | no binding (tested: 500 nM) | I23RB160 (antibody, mouse IgG2a, kappa, V domains shown, mouse immunization; mouse IgG2a/kappa) VH: QVQLKESGPDLVKPSQSLSLTCTVTGYSITSGYNWHWIRQFPGNKLEWMGYIHYSSGTIYNPSLKSRISITRDTSKNQFFLQLNSVTTEDTGTYYCARQLGLKAMDYWGQGTSVTVSS VL: DIVMTQSHKFMSTSVGDRVSITCKASQDVRTAVAWYQQKPGQSPKLLIHSASYRYTGVPDRFTGSGSGTDFTFTISSVQVEDLAVYYCQQHYTTPYTFGSGTKLEIKR |
|  |  |  | 44.6 nM | 0.0237 s⁻¹ | 531000 M⁻¹ s⁻¹ | 62.2 nM | 0.0216 s⁻¹ | 347000 M⁻¹ s⁻¹ | no binding (tested: 500 nM) | I23RB162 (antibody, mouse IgG2a, kappa, V domains shown, mouse immunization; mouse IgG2a/kappa) VH: EFQLQQSGPELVKPGASVKMSCKASGYTFTNYVMHWVKQKPGQGLEWIGYINPYNDGTKYNEKFKGKATLTSDKSSSTAYMELSSLTSEDSAVYYCARSRTGTRWYFDVWGAGTTVTVSS VL: DIVMTQSQKFMSTSVGDRVSVTCKASQNVGTNVAWYQQKPGQSPKALIYSASYRYSGVPDRFTGSGSGTDFTLTISNVQSEDLAEYFCQQYNSYPFTFGSGTKLEIKR |
|  |  |  | 13.3 nM | 0.0013 s⁻¹ | 98200 M⁻¹ s⁻¹ | 18.9 nM | 0.00151 s⁻¹ | 79800 M⁻¹ s⁻¹ | no binding (tested: 500 nM) | I23RB188 (antibody, mouse IgG2a, kappa, V domains shown, mouse immunization; mouse IgG2a/kappa) VH: QIQLVQSGPELKKPGETVKISCKASGYTFTNYGMNWVKQAPGKGLKWMGWINTYTGAPTYADDFKGRFAFSLETSASTAYLQINNFKNEDTATYFCARGNGYPYYYGINYWGQGTSVTVSS VL: DVQMIQSPSSLSASLGERVSLTCRASQEISGNLSWLQQKPDGTIKRLIYAASTLDSGVPKRFSGSRSGSDYSLTISSLESEDFADYYCLQYASYPWTFGAGTRLEIKR |
|  |  |  | 91.3 nM | 0.0116 s⁻¹ | 128000 M⁻¹ s⁻¹ | 34.8 nM | 0.00427 s⁻¹ | 123000 M⁻¹ s⁻¹ | no binding (tested: 500 nM) | I23RB169 (antibody, mouse IgG2a, kappa, V domains shown, mouse immunization; mouse IgG2a/kappa) VH: QIQLVQSGPELKKPGETVKISCKASGYTFTTVGMQWVQKMPGKGFKWIGWINTHSGEPKYTDDFKGRFAFSLETSASTAYLQISNLKSEDTATYFCARSSALTGAFAYWGQGTLVTVSS VL: DIKMTQSPASLAVSLGQRATISCRASKSVSTSDYSYMHWYQQKPGQPPKLLIYLASNLESGVPARFSGSGSGTDFTLNIHPVEEEDAATYYCQHSRELPRTFGAGTKLELKR |
|  |  |  | 11.4 nM | 0.00372 s⁻¹ | 325000 M⁻¹ s⁻¹ | 18.7 nM | 0.00416 s⁻¹ | 223000 M⁻¹ s⁻¹ | no binding (tested: 500 nM) | I23RB27 (antibody, mouse IgG2a, kappa, V domains shown, mouse immunization; mouse IgG2a/kappa) VH: QVQLKESGPDLVQPSQTLSLTCTVSGFSLTSYGVHWVRQPPGKGLEWVGTLGWDDKKSYNSALKSRLSISRDTSKSQVFLKLSSLQTEDTAMYYCTKEDVSYAMDFWGQGTTLTVSS VL: DIQMTQSPTSLAVSLGQRATISCRASESVEYYGTSLMHWYQQKPGQPPKLLIYAASNVESGVPARFSGSGSGTDFSLNIHPVEEEDIAMYFCQQGKKVPWTFGAGTKLEMKR |
